Numbering of substitutions follows the chain as printed. Each block holds one molecule with its values, some of them ahead of it.
How the values were obtained:
[1] = biological target: T1, recombinant LILRB1 ECD (human, UniProt Q8NHL6 24-461); test: ELISA, LILRB1 ECD binding to HLA-G-Fc
T1 construct: also called biotinylated LILRB1 ECD
Experimental: (§1) HLA-G inhibition was tested by ELISA. 384-well Maxisorp plates were coated with 2 ug/mL B2M-HLA-G fused to a mouse IgG2a-Fc and the plates were blocked with 2% (w/v) BSA in PBST. […] 15 ul of the antibody dilution series (300 nM to 0.3 nM) were mixed with 30 μL of the pre-mixed LILRB/Avidin-HRP solution (final antibody concentration 100 nM to 0.1 nM) and incubated for 1 h at room temperature. After three wash cycles with PBST, 20 μL of the antibody/LILRB/Avidin-HRP solution was transferred to the plate with immobilized HLA-G and incubated for 15 min at room temperature. After three wash cycles with PBST, residual LILRB binding to HLA-G was detected by developing the ELISA with TMB substrate.

[2] = biological target: T1, recombinant LILRB1 ECD; test: BLI, IgG on AHC sensor, ECD in solution
Experimental: (§2) Briefly, IgGs were captured on anti-human capture (AHC) biosensors (Sartorius). […] Subsequently, the sensors were dipped into 1× Kinetics Buffer to measure the dissociation over 420 s. All sensorgrams were double referenced against 1× Kinetics Buffer and unloaded […] sensors to subtract sensor drifts and potential reference binding of the analytes. The affinities were determined by applying a 1:1 binding model.

[3] = biological target: T2, recombinant LILRA1 ECD (human, UniProt O75019 17-461); test: BLI, IgG on AHC sensor, ECD in solution
T2 construct: whole canonical entry named; also called LILA1
Experimental: as §2

[4] = biological target: T3, recombinant LILRA3 (human, UniProt Q8N6C8 24-439); test: BLI, IgG on AHC sensor, ECD in solution
T3 construct: whole entry named; also called LILRA3 ECD; LILA3
Experimental: as §2

[5] = biological target: T4, recombinant LILRB2 ECD (human, UniProt Q8N423 22-460); test: ELISA, LILRB2 ECD binding to HLA-G-Fc
T4 construct: also called biotinylated LILRB2 ECD
Experimental: as §1

[6] = biological target: T4, recombinant LILRB2 ECD; test: BLI, IgG on AHC sensor, ECD in solution
Experimental: as §2

T3 sequence (Q8N6C8 24-439 limits assumed): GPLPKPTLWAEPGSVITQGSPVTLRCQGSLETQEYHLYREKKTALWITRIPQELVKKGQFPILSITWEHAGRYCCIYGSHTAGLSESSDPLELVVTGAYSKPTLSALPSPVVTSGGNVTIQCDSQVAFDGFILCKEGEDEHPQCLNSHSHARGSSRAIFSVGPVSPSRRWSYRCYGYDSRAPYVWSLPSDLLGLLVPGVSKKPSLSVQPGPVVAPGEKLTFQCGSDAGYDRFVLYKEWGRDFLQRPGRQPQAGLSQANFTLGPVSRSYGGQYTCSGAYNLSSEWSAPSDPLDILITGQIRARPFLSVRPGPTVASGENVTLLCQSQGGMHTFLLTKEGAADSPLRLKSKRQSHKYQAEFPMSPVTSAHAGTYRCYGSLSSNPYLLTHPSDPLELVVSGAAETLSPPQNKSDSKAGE
T1 sequence (Q8NHL6 24-461 limits assumed): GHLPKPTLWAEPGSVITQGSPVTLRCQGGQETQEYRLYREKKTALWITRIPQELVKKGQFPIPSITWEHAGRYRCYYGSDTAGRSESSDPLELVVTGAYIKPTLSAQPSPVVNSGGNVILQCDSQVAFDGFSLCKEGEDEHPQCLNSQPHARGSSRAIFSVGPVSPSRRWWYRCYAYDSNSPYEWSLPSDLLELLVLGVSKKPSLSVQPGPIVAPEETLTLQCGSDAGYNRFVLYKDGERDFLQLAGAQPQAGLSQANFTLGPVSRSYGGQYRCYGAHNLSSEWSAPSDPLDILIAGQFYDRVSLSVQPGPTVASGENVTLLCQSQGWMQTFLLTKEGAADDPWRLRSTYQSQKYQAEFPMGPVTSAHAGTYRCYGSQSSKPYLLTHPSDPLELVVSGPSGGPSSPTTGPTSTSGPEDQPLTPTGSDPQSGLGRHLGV
T4 sequence (Q8N423 22-460 limits assumed): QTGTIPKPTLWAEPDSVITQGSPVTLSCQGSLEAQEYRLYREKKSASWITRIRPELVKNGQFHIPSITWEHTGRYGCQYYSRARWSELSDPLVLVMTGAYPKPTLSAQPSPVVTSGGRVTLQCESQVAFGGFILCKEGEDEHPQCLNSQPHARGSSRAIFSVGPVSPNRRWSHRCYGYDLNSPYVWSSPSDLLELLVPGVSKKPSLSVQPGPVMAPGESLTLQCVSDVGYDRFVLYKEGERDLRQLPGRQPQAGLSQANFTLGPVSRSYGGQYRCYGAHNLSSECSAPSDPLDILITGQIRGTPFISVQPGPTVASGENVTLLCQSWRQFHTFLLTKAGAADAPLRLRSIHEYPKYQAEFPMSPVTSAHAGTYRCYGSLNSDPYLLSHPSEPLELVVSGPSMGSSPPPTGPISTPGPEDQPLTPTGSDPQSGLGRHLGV
T2 sequence (O75019 17-461 limits assumed): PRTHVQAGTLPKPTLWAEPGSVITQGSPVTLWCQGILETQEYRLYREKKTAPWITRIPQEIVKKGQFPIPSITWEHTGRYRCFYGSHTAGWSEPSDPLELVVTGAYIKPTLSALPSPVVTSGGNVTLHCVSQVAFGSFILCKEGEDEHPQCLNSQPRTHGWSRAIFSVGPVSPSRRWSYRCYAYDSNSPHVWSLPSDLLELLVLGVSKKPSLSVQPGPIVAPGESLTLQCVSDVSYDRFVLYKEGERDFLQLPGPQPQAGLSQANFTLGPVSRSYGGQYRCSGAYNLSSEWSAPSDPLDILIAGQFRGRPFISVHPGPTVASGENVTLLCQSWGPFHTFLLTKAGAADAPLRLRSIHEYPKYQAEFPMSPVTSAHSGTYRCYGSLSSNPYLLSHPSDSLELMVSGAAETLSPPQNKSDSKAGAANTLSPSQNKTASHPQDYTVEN

B3: A-001 (antibody, V domains shown)
VH: QVQLVQSGAEVKKPGSSVKVSCKASGGTFSSYAISWVRQAPGQGLEWMGGIIPIFGTANYAQKFQGRVTITADESTSTAYMELSSLRSEDTAVYYCAKDLGTYSSGWPYYYGMDVWGQGTTVTVSS
VL: SYELTQPPSVSVSPGQTASITCSGDKLGDKYASWYQQKPGQSPVLVIYQDSKRPSGIPERFSGSNSGNTATLTISGTQAEDEADYYCQSTTHTSFVFGGGTKLTVL
notes: tested as IgG; also called parental antibody A-001
- IC50 [1]: 5.1 nM
- IC50 [5]: 3.1 nM
- Kd [6]: 36.4 nM
- Kd [2]: 157 nM
- Kd [3]: 1820 nM
- Kd [4]: 576 nM

B4: A-020 (antibody, V domains shown)
VH: B3 VH with S30Q, S31T, G50S, I54K, G56Y, T57Q, A58S, Q62Y
VL: B3 VL
notes: tested as IgG
- IC50 [1]: 3.7 nM
- IC50 [5]: 3.8 nM
- Kd [6]: 2.9 nM
- Kd [2]: 21.2 nM
- Kd [3]: 316 nM
- Kd [4]: 392 nM

B5: A-013 (antibody, V domains shown)
VH: B3 VH with S30R, S31Q, Y32E, I34F, G50S, G56Y, T57S, A58S
VL: B3 VL
notes: tested as IgG
- IC50 [1]: 4.5 nM
- IC50 [5]: 4.6 nM
- Kd [6]: 4.2 nM
- Kd [2]: 6.3 nM
- Kd [3]: 1080 nM
- Kd [4]: 622 nM

B6: A-012 (antibody, V domains shown)
VH: B3 VH with F29I, S31E, I34F, S35L, I54K, G56H
VL: B3 VL
notes: tested as IgG
- IC50 [1]: 3.3 nM
- IC50 [5]: 3.8 nM
- Kd [6]: 6.8 nM
- Kd [2]: 12.8 nM
- Kd [3]: 469 nM
- Kd [4]: 166 nM

B7: A-005 (antibody, V domains shown)
VH: B3 VH with S30T, S31I, S35N, I54G, G56H, T57S
VL: B3 VL
notes: tested as IgG
- IC50 [1]: 5 nM
- IC50 [5]: 4.3 nM
- Kd [6]: 3.3 nM
- Kd [2]: 1 nM
- Kd [3]: 407 nM
- Kd [4]: 161 nM

B8: A-015 (antibody, V domains shown)
VH: B3 VH with T28S, S30Q, S35N, I54G, G56S
VL: B3 VL
notes: tested as IgG
- IC50 [1]: 4.4 nM
- IC50 [5]: 3.2 nM
- Kd [6]: 3.5 nM
- Kd [2]: 5 nM
- Kd [3]: 868 nM
- Kd [4]: 202 nM

B9: A-016 (antibody, V domains shown)
VH: B3 VH with I34F, S35N, G50S, G56K
VL: B3 VL
notes: tested as IgG
- IC50 [1]: 4.4 nM
- IC50 [5]: 5.1 nM
- Kd [6]: 1.4 nM
- Kd [2]: 6.5 nM
- Kd [3]: 402 nM
- Kd [4]: 116 nM

Other lines, results leading:

- IC50 [1]: 1.8 nM
- Kd [2]: 6.9 nM
- Kd [3]: 15.1 nM
- Kd [4]: 39.4 nM
Molecule: Ref051 [BND-22, LILRB1 specific] (antibody)

- IC50 [1]: 3.9 nM
- IC50 [5]: 3.1 nM
- Kd [6]: 4.4 nM
- Kd [2]: 5.2 nM
- Kd [4]: 317 nM
B1: A-022 (antibody, V domains shown)
VH: QVQLVQSGAEVKKPGSSVKVSCKASGGTFGGSAISWVRQAPGQGLEWMGGIVLAYSTSVYAQKFQGRVTITADESTSTAYMELSSLRSEDTAVYYCAKGPPVGSSSWYTDWYFDLWGRGTLVTVSS
VL: SYELTQPPSVSVSPGQTASITCSGDKLGDKYASWYQQKPGQSPVLVIYQDSKRPSGIPERFSGSNSGNTATLTISGTQAEDEADYYCLSYGAHSHGVVFGGGTKLTVL
notes: tested as IgG

- IC50 [1]: 3.8 nM
- IC50 [5]: 3.5 nM
- Kd [6]: 2 nM
- Kd [2]: 16 nM
- Kd [3]: 1270 nM
B2: A-037 (antibody, V domains shown)
VH: QVQLVQSGAEVKKPGSSVKVSCKASGGTFSSYAISWVRQAPGQGLEWMGGIIPIFGTANYAQKFQGRVTITADESTSTAYMELSSLRSEDTAVYYCARVHLYYHFPASYFDYWGQGTLVTVSS
VL: B1 VL with S89A, Y90S, G91L, A92G, H93T, S94G, H95G, G96V, V97Y
notes: tested as IgG

- IC50 [1]: 1.2 nM
- IC50 [5]: 2.7 nM
- Kd [6]: 18.6 nM
- Kd [2]: 35.8 nM
- Kd [3]: 42900 nM
B10: A-036 (antibody, V domains shown)
VH: B3 VH
VL: B3 VL with S89L, T91H, H92L, S94I, F95Y
notes: tested as IgG

From patent US20260209345A1 (IOMX THERAPEUTICS, published 2026)
